Laboratory results as given in patent publication US20130078247A1 (Boehringer Ingelheim, published 2013).
Residue numbers refer to the chain shown, from its start. Values joined by “and” are separate entries in the source; they are usually repeats but may differ in a detail not shown here. Identical values can stand only once. Like-named read-outs stand apart in the source and are kept apart here. One block for each binder: values may come before it.

Tests used:
[1] = molecular target: T1, recombinant human DLL4 (human, UniProt Q9NR61 25-522); experiment: SPR Biacore T100; rhDLL4 on chip; heterogeneous binding curve, no 1:1 fit
T1 construct: R&D Systems C-terminally His-tagged extracellular domain; also called rhDLL4; hDLL4; not shown: C-terminal His tag

[2] = molecular target: T1, recombinant human DLL4; experiment: cell-based or functional assay
[3] = molecular target: T2, cynomolgus DLL4 overexpressed on CHO cells (cynomolgus, UniProt Q9NR61 27-685 (human entry)); experiment: FACS, CHO-cDLL4 cells
T2 construct: also called CHO-cDLL4; cDLL4
T2 chain: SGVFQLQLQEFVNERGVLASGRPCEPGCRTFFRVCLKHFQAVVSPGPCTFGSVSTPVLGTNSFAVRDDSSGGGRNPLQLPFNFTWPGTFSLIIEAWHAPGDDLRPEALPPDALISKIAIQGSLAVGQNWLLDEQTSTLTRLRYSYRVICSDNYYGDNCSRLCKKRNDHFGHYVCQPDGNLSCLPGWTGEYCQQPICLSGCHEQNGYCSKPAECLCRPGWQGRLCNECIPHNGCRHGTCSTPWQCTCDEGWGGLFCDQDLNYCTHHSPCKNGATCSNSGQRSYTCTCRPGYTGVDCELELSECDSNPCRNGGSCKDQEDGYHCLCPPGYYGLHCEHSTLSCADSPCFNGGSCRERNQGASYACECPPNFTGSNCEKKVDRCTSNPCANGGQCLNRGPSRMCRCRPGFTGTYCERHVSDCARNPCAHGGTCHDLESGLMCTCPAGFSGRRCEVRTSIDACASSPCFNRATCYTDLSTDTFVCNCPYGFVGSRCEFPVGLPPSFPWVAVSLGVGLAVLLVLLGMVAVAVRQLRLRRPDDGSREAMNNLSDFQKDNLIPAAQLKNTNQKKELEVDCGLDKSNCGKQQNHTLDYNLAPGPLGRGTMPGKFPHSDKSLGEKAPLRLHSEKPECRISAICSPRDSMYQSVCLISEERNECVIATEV
Description: Additionally, in order to determine cross-reactivity of the bispecific VHHs to murine and cynomolgus DLL4, a FACS binding experiment is performed. Briefly, CHO cells overexpressing mouse and cynomolgus DLL4 are used for a titration binding experiment of the VHHs. After a 30 min incubation on ice, all samples are washed and a 2-step detection using anti-c-myc followed by goat-anti mouse IgG-PE labeled is performed. CHO cells overexpressing human DLL4 are taken as reference. The mean MCF value is determined using a FACS Array and used for calculation of the EC₅₀ value (Table 24; FIG. 19).

[4] = molecular target: T3, recombinant mouse DLL4 (mouse, UniProt Q9JI71 27-532); experiment: binding ELISA, coated mDLL4
T3 construct: extracellular domain; also called rmDLL4; mDLL4; not shown: C-terminal His tag
T3 sequence (Q9JI71 27-532): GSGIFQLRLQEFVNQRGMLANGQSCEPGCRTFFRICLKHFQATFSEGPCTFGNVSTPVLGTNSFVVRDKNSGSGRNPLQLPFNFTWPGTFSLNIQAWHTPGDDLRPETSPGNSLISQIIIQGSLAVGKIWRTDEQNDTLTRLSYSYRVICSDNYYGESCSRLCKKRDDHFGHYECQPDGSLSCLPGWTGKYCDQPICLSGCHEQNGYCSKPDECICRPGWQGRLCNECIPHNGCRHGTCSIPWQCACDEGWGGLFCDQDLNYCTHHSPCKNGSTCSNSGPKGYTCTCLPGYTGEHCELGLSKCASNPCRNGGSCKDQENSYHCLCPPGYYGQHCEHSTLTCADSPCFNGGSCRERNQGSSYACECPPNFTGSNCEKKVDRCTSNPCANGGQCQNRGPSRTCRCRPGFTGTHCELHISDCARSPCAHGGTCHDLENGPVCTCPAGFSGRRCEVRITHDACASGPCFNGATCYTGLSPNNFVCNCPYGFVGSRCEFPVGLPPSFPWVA
Description: (§1) In order to determine cross-reactivity to mouse DLL4 and rat DLL4, a binding ELISA is performed. […] Wells are blocked with a 1% casein solution. VHHs are applied as dilution series and binding is detected biotinylated anti-VHH 1A4 followed by extravidin-HRP. 1A4 is an anti-VHH VHH (generated in-house by Ablynx NV). As reference binding to human DLL4 is measured.

[5] = molecular target: T4, rat DLL4 (rat, UniProt D3ZHH1 28-530, limits assumed); experiment: binding ELISA, coated rat DLL4
T4 construct: also called rDLLA; rDLL4
T4 sequence (D3ZHH1 28-530 limits assumed): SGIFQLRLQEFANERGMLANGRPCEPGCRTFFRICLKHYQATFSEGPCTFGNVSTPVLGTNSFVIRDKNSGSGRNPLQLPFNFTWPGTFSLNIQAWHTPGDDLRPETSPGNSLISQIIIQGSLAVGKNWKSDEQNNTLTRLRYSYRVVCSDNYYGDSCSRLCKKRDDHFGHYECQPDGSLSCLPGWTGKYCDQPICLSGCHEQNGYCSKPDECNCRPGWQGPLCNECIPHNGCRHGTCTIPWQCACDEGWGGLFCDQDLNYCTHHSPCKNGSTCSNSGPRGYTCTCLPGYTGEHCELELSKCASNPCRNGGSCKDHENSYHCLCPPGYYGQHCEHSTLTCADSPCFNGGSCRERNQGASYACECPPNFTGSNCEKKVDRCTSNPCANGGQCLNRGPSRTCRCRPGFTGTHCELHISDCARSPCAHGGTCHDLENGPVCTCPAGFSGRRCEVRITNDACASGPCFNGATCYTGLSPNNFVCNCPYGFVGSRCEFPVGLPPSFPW
Description: as §1

[6] = molecular target: human DLL4, full length, overexpressed on CHO or HEK293 cells (human, UniProt Q9NR61 27-685); experiment: cell-based or functional assay
[7] = molecular target: recombinant human DLL4 extracellular domain, C-terminally His-tagged (R&D Systems) (human, UniProt Q9NR61 25-522, biotinylated in the competition assays (sites not given)); experiment: cell-based or functional assay
[8] = molecular target: T5, recombinant human Jagged-1 (Alexis) (human, UniProt P78504 34-1067, limits assumed); experiment: binding ELISA on coated rhJagged-1
T5 construct: also called hJagged-1; hJAG1
Description: Absence of binding to homologous ligands human DLL1 and human Jagged-1 is assessed via solid phase binding assay (ELISA). In brief, human DLL1 (Alexis, San Diego, Calif., USA) and human Jagged-1 (Alexis, San Diego, Calif., USA) are coated overnight at 4° C. at 1 μg/mL in a 96-well MaxiSorp plate (Nunc, Wiesbaden, Germany). Wells are blocked with a casein solution (1% in PBS). VHHs are applied as dilution series and binding is detected using a mouse anti-myc (Roche) and an anti-mouse-AP conjugate (Sigma, St. Louis, Mo., USA).

[9] = molecular target: T6, human Ang2 (human, UniProt O15123 19-496, limits assumed); experiment: competition ELISA: hAng2 binding to hTie2
T6 construct: also called hAng2; human Angiopoietin2
T6 sequence (looked up): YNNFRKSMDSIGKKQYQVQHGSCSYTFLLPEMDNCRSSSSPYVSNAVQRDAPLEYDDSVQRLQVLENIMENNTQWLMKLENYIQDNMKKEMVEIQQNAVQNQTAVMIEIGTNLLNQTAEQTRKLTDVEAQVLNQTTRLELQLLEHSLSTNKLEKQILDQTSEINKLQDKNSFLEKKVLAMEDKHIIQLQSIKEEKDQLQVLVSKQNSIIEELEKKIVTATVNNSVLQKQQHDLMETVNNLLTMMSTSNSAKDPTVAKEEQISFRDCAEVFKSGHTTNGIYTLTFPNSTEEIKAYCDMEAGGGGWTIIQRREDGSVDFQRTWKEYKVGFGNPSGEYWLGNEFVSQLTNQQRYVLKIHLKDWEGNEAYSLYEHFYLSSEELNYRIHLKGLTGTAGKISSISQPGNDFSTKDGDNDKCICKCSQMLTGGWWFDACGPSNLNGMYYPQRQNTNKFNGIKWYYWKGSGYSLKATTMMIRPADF

[10] = molecular target: T7, mouse Ang2 (mouse, UniProt O35608 19-496, limits assumed); experiment: competition ELISA: mAng2 binding to mTie2
T7 construct: also called mAng2
T7 sequence (looked up): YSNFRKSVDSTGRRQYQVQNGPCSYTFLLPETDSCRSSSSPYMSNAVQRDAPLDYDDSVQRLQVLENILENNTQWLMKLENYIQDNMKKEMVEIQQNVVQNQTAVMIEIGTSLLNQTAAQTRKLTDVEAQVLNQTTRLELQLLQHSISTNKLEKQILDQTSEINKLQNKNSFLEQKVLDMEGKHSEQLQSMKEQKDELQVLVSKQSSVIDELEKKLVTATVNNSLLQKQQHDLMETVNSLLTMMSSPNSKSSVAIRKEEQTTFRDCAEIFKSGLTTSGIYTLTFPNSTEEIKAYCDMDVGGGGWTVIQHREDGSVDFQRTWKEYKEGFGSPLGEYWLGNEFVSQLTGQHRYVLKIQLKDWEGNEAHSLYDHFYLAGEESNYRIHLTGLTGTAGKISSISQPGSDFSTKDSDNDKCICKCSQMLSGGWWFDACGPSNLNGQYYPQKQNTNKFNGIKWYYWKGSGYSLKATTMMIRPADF

[11] = molecular target: T8, cynomolgus Ang2 (cynomolgus); experiment: competition ELISA: cAng2 binding to cTie2
T8 construct: also called cAng2; cyno Ang2

[12] = molecular target: T7, mouse Ang2; experiment: competition ELISA: mAng2 binding to mTie2; remark: listed apart in the source
[13] = molecular target: T8, cynomolgus Ang2; experiment: competition ELISA: cAng2 binding to cTie2; remark: listed apart in the source
[14] = molecular target: T6, human Ang2; experiment: competition ELISA: hAng2 binding to hTie2; remark: listed apart in the source

kon [1]: 120000 M⁻¹ s⁻¹ and 150000 M⁻¹ s⁻¹
IC50 (nM) in the DLL4 proliferation assay (HUVEC, experiment 1) [2]: 103 nM
IC50 (nM) in the DLL4 proliferation assay (HUVEC, experiment 2) [2]: 32 nM
B1: DLLBII104G01 (VHH)
VHH: EVQLVESGGGLVQAGGSLRLSCAASGFTFDDYAIGWFRQAPGKEREGVSCISSSDGSTYYADSVKGRFTISSDNAKNTVYLQMNSLKPEDTAVYYCATAWCDSSWYRSFVGYWGQGTQVTVSS
notes: also called 104G1; not shown: C-terminal c-myc tag and His6 tag

IC50, DLL4/Notch1 reporter assay (luciferase; co-culture with HEK293-hDII4) [6]: 540 nM
concentration giving complete inhibition, HUVEC proliferation assay [7]: 10 µM
binding result [8]: no binding (tested: 2.5e-7 M)
B3: DLLBII56A09 (VHH)
VHH: EVQLVESGGGLVQPGGSLRLSCAASGFTFDDYAIGWFRQAPGKEPEGISCISSSGGITYYADSVKGRFTTSRDNAKNTVYLQMNSLKPEDTAVYYCATPGIAACRGIHYTGQGTQVTVSS
notes: also called 56A9; DLLBII56A9; not shown: C-terminal c-myc and His6 tags

More lines, now with the values behind:

B2: DLLBII00018 (VHH)
VHH: DVQLVESGGGLVQPGGSLRLSCAASGRTFSSYAMAWYRQAPGKEREYVAAIRWSGGTAYYADSVKGRFTISRDNAKNTVYLQMNSLRPEDTAVYYCANRAPDTRLAPYEYDHWGQGTLVTVSS
EC50 [3]: 0.8 nM
EC50 [4]: 3.3 nM
EC50 [5]: 2.6 nM

B4: 00956 (VHH)
VHH: EVQLVESGGGLVQPGGSLRLSCAASGFTLDDYAIGWFRQAPGKEREGVSAIRSSGGSTYYADSVKGRFTISSDNSKNTVYLQMNSLRPEDTAVYYCAAVPAGRLRFGEQWYPLYEYDAWGQGTLVTVSS
IC50 (read off the curve) [9]: ~1 nM
IC50 (read off the curve) [10]: ~2 nM
IC50 (read off the curve) [11]: ~2 nM

B5: 00938 (VHH)
VHH: B4 VHH with A24V, F27I, F106Y, L113I
IC50 (read off the curve) [12]: ~0.06 nM
IC50 (read off the curve) [13]: ~0.1 nM
IC50 (read off the curve) [14]: ~0.04 nM
